Measured values from patent publication US20180312608A1 (NEW YORK UNIVERSITY, published 2018).

Key:
Assay in all cases: Biacore (SPR), tau peptide
[1] = molecular target: T1, Tau379-408 [P-Ser396/404] (phosphoserine at Ser396 and Ser404 (Tau numbering, SEQ ID NO:1))
T1 construct: 30 amino acid synthetic peptide; also called Tau 379-408 (PSer396/PSer404)

[2] = molecular target: T2, Tau379-408
T2 construct: 30 amino acid synthetic peptide, not phosphorylated; also called Tau 379-408 (Ser396/Ser404)
T2 sequence (peptide, as listed by the source): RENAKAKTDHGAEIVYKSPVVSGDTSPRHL

[3] = molecular target: T3, Tau386-408 [P-Ser396/404] (phosphoserine at positions 11 and 19 (Ser396 and Ser404 of Tau))
T3 construct: 23 amino acid peptide; also called Tau 386-408 (PSer396/PSer404)
T3 sequence (peptide, as listed by the source): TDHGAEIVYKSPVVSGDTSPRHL

[4] = molecular target: Tau386-408 [P-Ser404] (phosphoserine at Ser404 of Tau (position 19 of SEQ ID NO:7))

Kd [1]: 271 nM | Kd [2]: 212 nM | Kd [3]: 469 nM | Kd [4]: 278 nM
B1: Antibody 4E6G7 (antibody, V domains shown)
VH: VQLQQSGAELVQPGASVKLSCTASGFNIKDTSMHWVRQRPEQGLEWIGRIAPANGNTKYDPKFQGKATITTDTSSNTAYLQLSSLTSEDTAVYYCSGSGNYDWGQGTTLTVS
VL: DIQMNQSPSSLSASLGDTITISCHASQNINVWLSWYQQKPGNIPKLLIFEASTLYTGVPSRFSGSGSGTGFTLTISSLQPEDIATYYCQQGQSYPWTFGGGTKLEIKR
notes: constant regions are not
